Earlier results in patent publication US20050118241A1, “Platform for transdermal formulations (ptf)” (priority 2002, published 2005).

Conditions: extensively degraded in liver, kidney and plasma

For glucagon, the half-life is listed as 3 to 6 min.
